Source: article PMC10916992, “APOE Christchurch‐mimetic therapeutic antibody reduces APOE‐mediated toxicity and tau phosphorylation” (Alzheimer's & Dementia, 2023)
Numbering of substitutions follows the chain as printed. Values belong to the binder of their own block, whether it stands above or below them.

Key:
[1] = biological target: T1, Recombinant His-tagged full-length human ApoE4 (Homo sapiens, ApoE4 (C112R mature), UniProt P02649, Cys112 → Arg112); test: SPR; Biacore 3000, PBS; the Fab injected at various concentrations (methods; the legend says ApoE4 over immobilised Fab); contact 120 s, dissociation 240 s, 30 μL/min; KD from ka and kd; details: both partners purified
T1 construct: Apolipoprotein E, human, isoform E4; their rows are written on this molecule; source: E. coli-derived, His-tagged, fee-for-service by Innovagen
Target sequence in this assay (P02649 other isoform, or with tags, fused parts or gaps Cys112 → Arg112 | Cys112 → Arg112): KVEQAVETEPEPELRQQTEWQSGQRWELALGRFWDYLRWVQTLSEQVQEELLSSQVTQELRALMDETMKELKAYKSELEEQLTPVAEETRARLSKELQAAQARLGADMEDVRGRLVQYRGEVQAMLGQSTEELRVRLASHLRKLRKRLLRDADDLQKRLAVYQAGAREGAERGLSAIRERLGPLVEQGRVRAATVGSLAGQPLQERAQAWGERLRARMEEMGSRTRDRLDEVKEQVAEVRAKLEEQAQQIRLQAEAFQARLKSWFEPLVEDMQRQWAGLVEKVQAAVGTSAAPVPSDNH

[2] = biological target: Recombinant His-tagged full-length human ApoE4 (human, UniProt P02649 19-317, Cys112 → Arg112); test: SPR
Chain of Recombinant His-tagged full-length human ApoE4 (human, UniProt P02649 19-317, Cys112 → Arg112) (P02649 other isoform, or with tags, fused parts or gaps Cys112 → Arg112): as the sequence (P02649 other isoform, or with tags, fused parts or gaps Cys112 → Arg112 | Cys112 → Arg112) above

[3] = biological target: T1, Recombinant His-tagged full-length …; test: BLI; OCTET RED 96, 25°C; msIgG1 7C11.mAb loaded on anti-mouse Fc (AMC) sensors at 20 μg/mL; ApoE variant in solution (200 nM), PBS + 0.1% BSA; details: both partners purified
[4] = biological target: T2, Recombinant His-tagged full-length human ApoE2 (Homo sapiens, ApoE2 (R158C mature), UniProt P02649, Arg158 → Cys158); test: as above; details: both partners purified
T2 construct: Apolipoprotein E, human, isoform E2; its rows are written on this molecule; source: E. coli-derived, His-tagged, fee-for-service by Innovagen

[5] = biological target: T3, Recombinant His-tagged full-length human ApoE3 (Homo sapiens, ApoE3, UniProt P02649); test: as above; details: both partners purified
T3 construct: Apolipoprotein E, human, isoform E3 (C112, R158); ELISA used the Innovagen protein; their rows are written on this molecule; A recombinant 'full-length' ApoE from E. coli is probably the mature protein without signal peptide (surmise); also called ApoE3 FL; WT ApoE; source: E. coli-derived, His-tagged, fee-for-service by Innovagen

[6] = biological target: T1, Recombinant His-tagged full-length …; test: BLI; OCTET RED 96, 25°C; ApoE variants immobilised on anti-penta-His (HS1K) sensors; 7C11.mAb in solution, titrated; details: both partners purified
Target sequence in this assay (P02649 other isoform, or with tags, fused parts or gaps Cys112 → Arg112 | Cys112 → Arg112): as above

[7] = biological target: T2, Recombinant His-tagged full-length …; test: as above; details: both partners purified
Target sequence in this assay (P02649 other isoform, or with tags, fused parts or gaps Arg158 → Cys158 | Arg158 → Cys158): as the sequence (P02649 other isoform, or with tags, fused parts or gaps Cys112 → Arg112 | Cys112 → Arg112) above, with R112C, R158C counted along it

[8] = biological target: T3, Recombinant His-tagged full-length …; test: as above; details: both partners purified
Target sequence in this assay (P02649 19-317): as the sequence (P02649 other isoform, or with tags, fused parts or gaps Cys112 → Arg112 | Cys112 → Arg112) above, with R112C counted along it

[9] = biological target: T3, Recombinant His-tagged full-length …; test: ELISA; ApoE peptide or full-length protein coated on the plate; serial dilutions of hybridoma cell supernatants; TBS with 2 mM CaCl2, 3% BSA block; details: one partner purified
Target sequence in this assay (P02649 19-317): as the sequence (P02649 other isoform, or with tags, fused parts or gaps Cys112 → Arg112 | Cys112 → Arg112) above, with R112C counted along it

[10] = biological target: T1, Recombinant His-tagged full-length …; test: BLI; OCTET RED 96, 25°C; 7C11ch.IgG1 loaded on anti-human IgG Fc (AHC) sensors at 20 μg/mL; ApoE4 in solution (200 nM), PBS + 0.1% BSA; details: both partners purified
[11] = biological target: T3, Recombinant His-tagged full-length …; test: ELISA; ApoE variants or peptides coated (0.0025 μg/μL in TBS with 2 mM CaCl2, 16 h 4°C); serial dilutions of purified monoclonal antibodies (0.01 to 6.7 nM in the isoform panel), 2 h RT or 16 h 4°C; HRP secondary; details: both partners purified
Target sequence in this assay (P02649 19-317): as the sequence (P02649 other isoform, or with tags, fused parts or gaps Cys112 → Arg112 | Cys112 → Arg112) above, with R112C counted along it

[12] = biological target: T4, ApoE3 in post mortem human brain tissue (APOEε3/ε3 PSEN1 E280A carrier) (Homo sapiens, ApoE3, UniProt P02649); test: immunostaining of cells or tissue; formalin-fixed paraffin-embedded middle temporal gyrus sections of PSEN1 E280A carriers of different APOE genotypes; 1H4 0.012 μg/μL, 7C11 0.041 μg/μL, 19G 0.072 μg/μL overnight 4°C; HRP detection; not quantified; details: one partner purified
T4 construct: Apolipoprotein E, human, isoform E3; source: endogenous, post mortem human middle temporal gyrus, formalin-fixed paraffin-embedded sections
T4 sequence (P02649 19-317, stated change not applied): as the sequence (P02649 other isoform, or with tags, fused parts or gaps Cys112 → Arg112 | Cys112 → Arg112) above, with R112C counted along it

B2: 7C11.mAb (mouse monoclonal anti-ApoE antibody, msIgG1) (antibody, V domains shown)
VH: EVKLVESGGGLVQPGGSLKLSCAASGFTFSRYTMSWVRQTPEKRLEWVAKIRNVGGITYYPDTVKGRFTISRDNAKNTLYLQMSSLKSEDTAMYYCARHYYGSEDYFDYWGQGTTLTVSS
VL: DNVLTQSPASLAVSLGQRATISCKASQSVDYDGDSYMNWYQQKPGQPPKVFIYAASNLESGIPARFSGSGSGTNFTLNIHPVEEEDAATYYCQQSNEDPWTFGGGTKLEIK
notes: VH CDR-1; VH CDR-2; VH CDR-3; VL CDR-1; VL CDR-2; VL CDR-3; Mouse IgG1; also called 7C11.Ab; ms.7C11-Ab; source: hybridoma supernatant (7C11.Ab) and purified monoclonal antibody (7C11.mAb), fee-for-service by Innovagen
Kd [3]: < 0.001 nM
Kd [4]: 28.1 nM
Kd [5]: 5.14 nM
Kd [6]: 6.07 nM
Kd [7]: 7.41 nM
Kd [8]: 16.8 nM

B3: 25F.mAb (mouse monoclonal anti-ApoE3Ch antibody, clone 25F1-2) (antibody, V domains shown)
VH: EVQLQQSGAELVRPGALVKWSCKASGFNIKDYHIHWVKQRPEQGLDWIGWIDPEIDKTLYDPKFQGKARITADTSSNTAYLQLSSLTSEDTAVYYCARGTARASFDYWGQGTTLTVSS
VL: B2 VL with N2I, S35T, V50L, F51L, A54T, N74D, E85V
notes: VH CDR-1; VH CDR-2; VH CDR-3; VL CDR-1; VL CDR-2; VL CDR-3; Raised against the ApoECh peptide; also called 25F.Ab; source: hybridoma supernatant (25F.Ab) and purified monoclonal antibody (25F.mAb), fee-for-service by Innovagen
binding result [9]: binds

B5: 1H4.mAb (mouse monoclonal anti-ApoE antibody) (antibody, V domains shown)
VH: B2 VH with L11V, R31S, V54G, P61L, V64L, M93I, Y95F
VL: B2 VL with N74D
notes: VH CDR-1; VH CDR-2; VH CDR-3; VL CDR-1; VL CDR-2; VL CDR-3; Raised against the ApoE peptide; also called 1H4.Ab; source: hybridoma supernatant (1H4.Ab) and purified monoclonal antibody (1H4.mAb), fee-for-service by Innovagen
binding result [11]: binds
binding result [12]: binds

Further lines, results first:

Kd [1]: ~10 nM
Kd [2]: 25.1 nM
B1: 7C11-Fab (recombinant Fab fragment of the 7C11.chIgG1 antibody) (Fab, V domains shown)
VH: B2 VH
VL: B2 VL
notes: VH CDR-1 of 7C11; VH CDR-2 of 7C11; VH CDR-3 of 7C11; VL CDR-1 of 7C11; VL CDR-2 of 7C11; VL CDR-3 of 7C11; also called Fab-7C11; 7C11.IgGFab; source: recombinant, purified, fee-for-service by Creative BioStructure

Kd [10]: < 0.001 nM
B4: 7C11.chIgG1 (chimeric mouse-human IgG1 7C11 antibody) (antibody, V domains shown)
VH: B2 VH
VL: B2 VL
notes: VH CDR-1 of 7C11; VH CDR-2 of 7C11; VH CDR-3 of 7C11; VL CDR-1 of 7C11; VL CDR-2 of 7C11; VL CDR-3 of 7C11; Human IgG1 constant regions; also called chimeric 7C11 antibody; 7C11 human chimeric antibody; source: human chimeric antibody produced as fee-for-service by Innovagen
